Key:
[1] = molecular target: calmodulin (human, Ca2+-loaded) (human) (UniProt P0DP23); assay: NMR titration
[2] = molecular target: HVR peptide (22 amino acid synthetic peptide representing the hypervariable region of K-Ras4B) (human); assay: ITC
[3] = system: CaM; details: helix 5 independently expressed; ref [22]; cited from earlier work

HVR peptide (22 amino acid synthetic peptide representing the hypervariable region of K-Ras4B)
Kd [1]: 17.5 µM

calmodulin (human, Ca2+-loaded) (from UniProt P0DP23 1-149) (natural protein)
Kd [2]: 11.2 µM | dH [2]: 0.65 kcal/mol | stoichiometry N [2]: 1

α–helix 5 peptide (amino acids 151–166): hydrophobic α–helix 5 peptide (amino acids 151–166) of K-Ras4B, independently expressed, literature (RVEDAFYTLVREIRQY; isoform 2B; UniProt P01116 151-166, looked up, fragment)
CaM binding [3]: apparent binding to CaM
